Results from US20260209386A1 (MYTHIC THERAPEUTICS, published 2026).

T1: Human PTK7 Protein, His Tag (Acro Biosystems) (human, UniProt Q13308 31-704)
T1 construct: Bought His-tagged recombinant human PTK7; also called CCK4; Tyrosine-protein kinase-like 7
T1 sequence: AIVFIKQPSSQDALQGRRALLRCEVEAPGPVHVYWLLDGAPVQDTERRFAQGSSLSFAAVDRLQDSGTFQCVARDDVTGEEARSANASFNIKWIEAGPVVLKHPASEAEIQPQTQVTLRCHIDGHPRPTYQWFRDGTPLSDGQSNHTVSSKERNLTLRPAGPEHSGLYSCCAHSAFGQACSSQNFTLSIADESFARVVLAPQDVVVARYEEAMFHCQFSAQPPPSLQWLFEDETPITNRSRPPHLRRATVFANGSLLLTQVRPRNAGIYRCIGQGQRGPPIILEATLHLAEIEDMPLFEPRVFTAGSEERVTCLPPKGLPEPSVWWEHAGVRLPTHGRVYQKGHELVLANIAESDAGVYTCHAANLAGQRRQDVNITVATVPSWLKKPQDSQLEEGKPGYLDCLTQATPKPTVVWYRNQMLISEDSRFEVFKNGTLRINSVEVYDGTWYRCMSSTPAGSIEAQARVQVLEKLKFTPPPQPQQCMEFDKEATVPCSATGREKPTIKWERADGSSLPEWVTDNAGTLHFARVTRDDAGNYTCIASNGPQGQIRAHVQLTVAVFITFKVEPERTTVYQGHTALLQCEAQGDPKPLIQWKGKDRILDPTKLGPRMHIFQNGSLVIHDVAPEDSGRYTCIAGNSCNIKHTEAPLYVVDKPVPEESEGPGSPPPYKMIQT


Target: T1, Human PTK7 Protein, His Tag (Acro …)
Test: BLI (Octet), antibody on anti-human Fc sensor, 50 nM PTK7; 1 = pH dependent binding

| Binder | binding result |
| --- | --- |
| MYT10970 (antibody, V domains shown, MYT9359 HC variant; captured on anti-human Fc sensor) VH: EVQLVESGGGLVQPGGSLRLSCTASGFSLSSYAMGWVRQAPGKGLEWVGFINAGGNTYHANWAKGRFTISRDTSKNTVYLQMNSLRAEDTAVYFCARRYSRASGWYDLWGQGTLVTVSS VL: EIVMTQSPSTLSASVGDRVIITCQASQSISSYLAWYQQKPGKAPKLLIYAASTLASGVPSRFSGSGSGAEFTLTISSLQPDDFATYYCQSYSYSSGIDYGDVFGQGTKLTVL | binds |
| MYT10991 (antibody, V domains shown, MYT9359 HC alanine variant; captured on anti-human Fc sensor) VH: EVQLVESGGGLVQPGGSLRLSCTASGFSLSSYAMGWVRQAPGKGLEWVGFINAGGNTYYANWAKGRFTISRDTSKNTVYLQMNSLRAEDTAVYFCARRYSRASGWYALWGQGTLVTVSS VL: EIVMTQSPSTLSASVGDRVIITCQASQSISSYLAWYQQKPGKAPKLLIYAASTLASGVPSRFSGSGSGAEFTLTISSLQPDDFATYYCQSYSYSSGIDYGDVFGQGTKLTVL | binds |
| MYT10980 (antibody, V domains shown, MYT9359 HC variant; captured on anti-human Fc sensor) VH: EVQLVESGGGLVQPGGSLRLSCTASGFSLSSYAMGWVRQAPGKGLEWVGFINAGGNTYYANWAKGRFTISRDTSKNTVYLQMNSLRAEDTAVYFCARRHSRASGWYDLWGQGTLVTVSS VL: EIVMTQSPSTLSASVGDRVIITCQASQSISSYLAWYQQKPGKAPKLLIYAASTLASGVPSRFSGSGSGAEFTLTISSLQPDDFATYYCQSYSYSSGIDYGDVFGQGTKLTVL | binds |
| MYT11013 (antibody, V domains shown, MYT9359 LC variant; captured on anti-human Fc sensor) VH: EVQLVESGGGLVQPGGSLRLSCTASGFSLSSYAMGWVRQAPGKGLEWVGFINAGGNTYYANWAKGRFTISRDTSKNTVYLQMNSLRAEDTAVYFCARRYSRASGWYDLWGQGTLVTVSS VL: EIVMTQSPSTLSASVGDRVIITCQASQSISSYLAWYQQKPGKAPKLLIYAASTLASGVPSRFSGSGSGAEFTLTISSLQPDDFATYYCQSYHYSSGIDYGDVFGQGTKLTVL | binds |
| MYT10998 (antibody, V domains shown, MYT9359 LC variant; captured on anti-human Fc sensor) VH: EVQLVESGGGLVQPGGSLRLSCTASGFSLSSYAMGWVRQAPGKGLEWVGFINAGGNTYYANWAKGRFTISRDTSKNTVYLQMNSLRAEDTAVYFCARRYSRASGWYDLWGQGTLVTVSS VL: EIVMTQSPSTLSASVGDRVIITCQASQSIHSYLAWYQQKPGKAPKLLIYAASTLASGVPSRFSGSGSGAEFTLTISSLQPDDFATYYCQSYSYSSGIDYGDVFGQGTKLTVL | binds |
| MYT10997 (antibody, V domains shown, MYT9359 LC variant; captured on anti-human Fc sensor) VH: EVQLVESGGGLVQPGGSLRLSCTASGFSLSSYAMGWVRQAPGKGLEWVGFINAGGNTYYANWAKGRFTISRDTSKNTVYLQMNSLRAEDTAVYFCARRYSRASGWYDLWGQGTLVTVSS VL: EIVMTQSPSTLSASVGDRVIITCQASQSHSSYLAWYQQKPGKAPKLLIYAASTLASGVPSRFSGSGSGAEFTLTISSLQPDDFATYYCQSYSYSSGIDYGDVFGQGTKLTVL | binds |
| MYT11000 (antibody, V domains shown, MYT9359 LC variant; captured on anti-human Fc sensor) VH: EVQLVESGGGLVQPGGSLRLSCTASGFSLSSYAMGWVRQAPGKGLEWVGFINAGGNTYYANWAKGRFTISRDTSKNTVYLQMNSLRAEDTAVYFCARRYSRASGWYDLWGQGTLVTVSS VL: EIVMTQSPSTLSASVGDRVIITCQASQSISSHLAWYQQKPGKAPKLLIYAASTLASGVPSRFSGSGSGAEFTLTISSLQPDDFATYYCQSYSYSSGIDYGDVFGQGTKLTVL | binds |
| MYT11004 (antibody, V domains shown, MYT9359 LC variant; captured on anti-human Fc sensor) VH: EVQLVESGGGLVQPGGSLRLSCTASGFSLSSYAMGWVRQAPGKGLEWVGFINAGGNTYYANWAKGRFTISRDTSKNTVYLQMNSLRAEDTAVYFCARRYSRASGWYDLWGQGTLVTVSS VL: EIVMTQSPSTLSASVGDRVIITCQASQSISSYLAWYQQKPGKAPKLLIYAHSTLASGVPSRFSGSGSGAEFTLTISSLQPDDFATYYCQSYSYSSGIDYGDVFGQGTKLTVL | binds |
| MYT11010 (antibody, V domains shown, MYT9359 LC variant; captured on anti-human Fc sensor) VH: EVQLVESGGGLVQPGGSLRLSCTASGFSLSSYAMGWVRQAPGKGLEWVGFINAGGNTYYANWAKGRFTISRDTSKNTVYLQMNSLRAEDTAVYFCARRYSRASGWYDLWGQGTLVTVSS VL: EIVMTQSPSTLSASVGDRVIITCQASQSISSYLAWYQQKPGKAPKLLIYAASTLASGVPSRFSGSGSGAEFTLTISSLQPDDFATYYCHSYSYSSGIDYGDVFGQGTKLTVL | binds |
| MYT11018 (antibody, V domains shown, MYT9359 LC variant; captured on anti-human Fc sensor) VH: EVQLVESGGGLVQPGGSLRLSCTASGFSLSSYAMGWVRQAPGKGLEWVGFINAGGNTYYANWAKGRFTISRDTSKNTVYLQMNSLRAEDTAVYFCARRYSRASGWYDLWGQGTLVTVSS VL: EIVMTQSPSTLSASVGDRVIITCQASQSISSYLAWYQQKPGKAPKLLIYAASTLASGVPSRFSGSGSGAEFTLTISSLQPDDFATYYCQSYSYSSGHDYGDVFGQGTKLTVL | binds |

Now from value to binder:

| binding result | Binder |
| --- | --- |
| binds | MYT11006 (antibody, V domains shown, MYT9359 LC variant; captured on anti-human Fc sensor) VH: EVQLVESGGGLVQPGGSLRLSCTASGFSLSSYAMGWVRQAPGKGLEWVGFINAGGNTYYANWAKGRFTISRDTSKNTVYLQMNSLRAEDTAVYFCARRYSRASGWYDLWGQGTLVTVSS VL: EIVMTQSPSTLSASVGDRVIITCQASQSISSYLAWYQQKPGKAPKLLIYAASHLASGVPSRFSGSGSGAEFTLTISSLQPDDFATYYCQSYSYSSGIDYGDVFGQGTKLTVL |
| binds | MYT11012 (antibody, V domains shown, MYT9359 LC variant; captured on anti-human Fc sensor) VH: EVQLVESGGGLVQPGGSLRLSCTASGFSLSSYAMGWVRQAPGKGLEWVGFINAGGNTYYANWAKGRFTISRDTSKNTVYLQMNSLRAEDTAVYFCARRYSRASGWYDLWGQGTLVTVSS VL: EIVMTQSPSTLSASVGDRVIITCQASQSISSYLAWYQQKPGKAPKLLIYAASTLASGVPSRFSGSGSGAEFTLTISSLQPDDFATYYCQSHSYSSGIDYGDVFGQGTKLTVL |
| binds | MYT10974 (antibody, V domains shown, MYT9359 HC variant; captured on anti-human Fc sensor) VH: EVQLVESGGGLVQPGGSLRLSCTASGFSLSSYAMGWVRQAPGKGLEWVGFINAGGNTYYANWHKGRFTISRDTSKNTVYLQMNSLRAEDTAVYFCARRYSRASGWYDLWGQGTLVTVSS VL: EIVMTQSPSTLSASVGDRVIITCQASQSISSYLAWYQQKPGKAPKLLIYAASTLASGVPSRFSGSGSGAEFTLTISSLQPDDFATYYCQSYSYSSGIDYGDVFGQGTKLTVL |
| binds | MYT11014 (antibody, V domains shown, MYT9359 LC variant; captured on anti-human Fc sensor) VH: EVQLVESGGGLVQPGGSLRLSCTASGFSLSSYAMGWVRQAPGKGLEWVGFINAGGNTYYANWAKGRFTISRDTSKNTVYLQMNSLRAEDTAVYFCARRYSRASGWYDLWGQGTLVTVSS VL: EIVMTQSPSTLSASVGDRVIITCQASQSISSYLAWYQQKPGKAPKLLIYAASTLASGVPSRFSGSGSGAEFTLTISSLQPDDFATYYCQSYSHSSGIDYGDVFGQGTKLTVL |
| binds | MYT11003 (antibody, V domains shown, MYT9359 LC variant; captured on anti-human Fc sensor) VH: EVQLVESGGGLVQPGGSLRLSCTASGFSLSSYAMGWVRQAPGKGLEWVGFINAGGNTYYANWAKGRFTISRDTSKNTVYLQMNSLRAEDTAVYFCARRYSRASGWYDLWGQGTLVTVSS VL: EIVMTQSPSTLSASVGDRVIITCQASQSISSYLAWYQQKPGKAPKLLIYHASTLASGVPSRFSGSGSGAEFTLTISSLQPDDFATYYCQSYSYSSGIDYGDVFGQGTKLTVL |
| binds | MYT10999 (antibody, V domains shown, MYT9359 LC variant; captured on anti-human Fc sensor) VH: EVQLVESGGGLVQPGGSLRLSCTASGFSLSSYAMGWVRQAPGKGLEWVGFINAGGNTYYANWAKGRFTISRDTSKNTVYLQMNSLRAEDTAVYFCARRYSRASGWYDLWGQGTLVTVSS VL: EIVMTQSPSTLSASVGDRVIITCQASQSISHYLAWYQQKPGKAPKLLIYAASTLASGVPSRFSGSGSGAEFTLTISSLQPDDFATYYCQSYSYSSGIDYGDVFGQGTKLTVL |
| binds | MYT11001 (antibody, V domains shown, MYT9359 LC variant; captured on anti-human Fc sensor) VH: EVQLVESGGGLVQPGGSLRLSCTASGFSLSSYAMGWVRQAPGKGLEWVGFINAGGNTYYANWAKGRFTISRDTSKNTVYLQMNSLRAEDTAVYFCARRYSRASGWYDLWGQGTLVTVSS VL: EIVMTQSPSTLSASVGDRVIITCQASQSISSYHAWYQQKPGKAPKLLIYAASTLASGVPSRFSGSGSGAEFTLTISSLQPDDFATYYCQSYSYSSGIDYGDVFGQGTKLTVL |
| binds | MYT10993 (antibody, V domains shown, MYT9359 LC variant; captured on anti-human Fc sensor) VH: EVQLVESGGGLVQPGGSLRLSCTASGFSLSSYAMGWVRQAPGKGLEWVGFINAGGNTYYANWAKGRFTISRDTSKNTVYLQMNSLRAEDTAVYFCARRYSRASGWYDLWGQGTLVTVSS VL: EIVMTQSPSTLSASVGDRVIITCQHSQSISSYLAWYQQKPGKAPKLLIYAASTLASGVPSRFSGSGSGAEFTLTISSLQPDDFATYYCQSYSYSSGIDYGDVFGQGTKLTVL |
| binds | MYT10978 (antibody, V domains shown, MYT9359 HC variant; captured on anti-human Fc sensor) VH: EVQLVESGGGLVQPGGSLRLSCTASGFSLSSYAMGWVRQAPGKGLEWVGFINAGGNTYYANWAKGRFTISRDTSKNTVYLQMNSLRAEDTAVYFCAHRYSRASGWYDLWGQGTLVTVSS VL: EIVMTQSPSTLSASVGDRVIITCQASQSISSYLAWYQQKPGKAPKLLIYAASTLASGVPSRFSGSGSGAEFTLTISSLQPDDFATYYCQSYSYSSGIDYGDVFGQGTKLTVL |
